Measured values as given in patent US20220282255, “APTAMER FOR TGF-BETA1 AND USE OF SAME” (RIBOMIC INC., published 2022).

What was measured:
[1] = target: T1, TGF-β1 (Homo sapiens, UniProt P01137 P01137:279-390); assay: cell_activity; SBE-luciferase HEK293, 80 pM:20 nM; conditions: tags: Recombinant Human TGF-β1, Peprotech; chain copies: 2 (homodimer, inferred)
Experimental: (§1) Whether the nucleic acids of SEQ ID NOs: 4-13, 17-22, 26-28 inhibit the activity of TGF-β1 was evaluated by a cell assay system that monitors Smad signaling pathway known to be activated by the stimulation of TGF-β. To be specific, photinus luciferase equipped with SBE (Smad-binding element) in the promoter region was used as a reporter (pGL4.48[luc2P/SBE/Hygro] Vector, Promega KK). Together with this SBE-induced photinus luciferase reporter plasmid, a renillaluciferase expression plasmid (pGL4.74[hRluc/TK] Vector, Promega KK) was mixed at a ratio of 20:1 as a standardized control for transfection efficiency, and transfected into HEK293 cells. The transfected HEK293 cells were re-seeded in a 96-well plate and cultured until confluent. TGF-β1 and a mixture of nucleic acid aptamers of SEQ ID NOs: 4-13, 17-22, 26-28 synthesized using T7 RNA polymerase (Y639F) were added thereto to respective final concentrations of 80 pM, 20 nM, and the cells were cultured for 3 hr. Thereafter, the expression levels of photinus luciferase and renillaluciferase were confirmed using Dual-Luciferase (registered trade mark) Reporter Assay System (Promega KK). The measurement value of photinus luciferase in each sample was corrected with the measured value of renillaluciferase, and the relative expression level of each sample was calculated by setting the ratio of photinus luciferase and renillaluciferase in a sample free of addition of TGF-β1 as 1. […] When a nucleic acid pool of 35N, 40N or 50N (SEQ ID NO: 14, 1, 23) was used as a negative control and a known TGF-β antibody (R&D, MAB1835) was used as a positive control, the same treatment and measurement were performed.

[2] = target: T1, TGF-β1; assay: SPR; receptor-binding inhibition, 10 nM:30 nM; conditions: tags: Recombinant Human TGF-β1, Peprotech; chain copies: 2 (homodimer, inferred)
Experimental: Measurement of Inhibitory Activity of Aptamer Against TGF-β1-2 Whether or not the nucleic acids of SEQ ID NOs: 6, 9, 19, 21, 26 inhibit the binding of TGF-β1 to the TGF-β receptor was evaluated by surface plasmon resonance method. For the measurement, Biacore T200 manufactured by GE Healthcare was used, and the measurement was performed by the method shown below. About 1500 RU of protein A was immobilized on the surface of a sensor chip of CM4 chip by using an amine coupling kit. 20 μL of Fc fusion TRII receptor (R&D) adjusted to 30 nM was injected as an analyte at a flow rate of 20 μL/min. As a result, the Fc fusion TRII receptor was immobilized on the surface of the sensor chip of the CM4 chip via protein A. Furthermore, a mixed solution of TGF-β1 (4 nM) or TGF-β1 (10 nM), and nucleic acid (30 nM) was injected. Solution A was used as the running buffer. Based on the RU value of a sample injected with TGF-β1 alone and the RU value before injection of TGF-β1, the effect of suppressing an increase in the RU value when TGF-β1 was injected in the presence of nucleic acid was calculated as the effect of inhibiting the binding of TGF-β1 to the TRII receptor.

[3] = target: T1, TGF-β1; assay: SPR; conditions: tags: Recombinant Human TGF-β1, Peprotech; chain copies: 2 (homodimer, inferred)
[4] = target: T1, TGF-β1; assay: cell_activity; 80 pM:20 nM; conditions: tags: Recombinant Human TGF-β1, Peprotech; chain copies: 2 (homodimer, inferred); G4 (predicted)
Experimental: as §1
Whether or not these nucleic acids inhibit the activity of TGF-β1 was evaluated by a luciferase reporter assay similar to that in Example 4, as in Example 1.

[5] = target: T1, TGF-β1; assay: SPR; +; conditions: tags: Recombinant Human TGF-β1, Peprotech; chain copies: 2 (homodimer, inferred)

T1 sequence (P01137 279-390, one chain of several): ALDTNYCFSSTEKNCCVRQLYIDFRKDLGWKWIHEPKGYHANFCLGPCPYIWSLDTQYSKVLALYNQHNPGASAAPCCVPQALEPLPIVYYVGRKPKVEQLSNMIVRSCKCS

B1: SEQ ID NO: 26 (ssRNA)
RNA: GGGAAUGCACUAGUGUUCAACCCCGACCAAUAGCAGCCCGUCUUUAACUAUUGGAAUCGCAUACGGGCCCAAGCUUGCACGUCGAGUCAG
modifications: 2'-F all pyrimidines (U,C)
Binder B1 has an activity [1] of 81 % inhibition and a binding signal [2] of 84.3 % inhibition.

B2: SEQ ID NO: 6 (ssRNA)
RNA: GGGAUCCGCAUCUAGAGUACUUGUAUAAGUGGAGGGCGAGACUUGGGAGGGGCGAAUUGAAACGUCUACUGAAGCUAUCA
modifications: 2'-F all pyrimidines (U,C)
In the case of B2, the activity [1] is reported as 98 % inhibition and the binding signal [2] is reported as 75 % inhibition.

B3: SEQ ID NO: 10 (ssRNA)
RNA: GGGAUCCGCAUCUAGAGUACGAUGCAUGUUUUUAUAAAGUAUUGUUAUGUAAUGCAUCAAAACGUCUACUGAAGCUAUCA
modifications: 2'-F all pyrimidines (U,C)
Work on B3 yielded a qualitative [3] of no more than 10 RU.

B4: SEQ ID NO: 12 (ssRNA)
RNA: GGGAUCCGCAUCUAGAGUACCUAGAGGUGACUUGGGACGCGAGUUAUAAGGGAAUAGUCCAACGUCUACUGAAGCUAUCA
modifications: 2'-F all pyrimidines (U,C)
Work on B4 yielded a qualitative [3] of no more than 10 RU.

B5: SEQ ID NO: 40 (ssRNA)
RNA: GGGAGAACUUGGAGCUCCUGAAUAAGGGAGGGGAGACUUGUGGAGGGCAGAAGUGCGACGUCAGUC
modifications: 2'-F all pyrimidines (U,C)
For B5, the activity [4] was 100 % inhibition.

B6: SEQ ID NO: 17 (ssRNA)
RNA: GGGAGAACUUGGAGCUGAUGUCUGGAGUCCCCAUAUAUCACGUACAGUGUAGUGCGACGUCAGUC
modifications: 2'-F all pyrimidines (U,C)
B6: binds [5].

B7: SEQ ID NO: 13 (ssRNA)
RNA: GGGAUCCGCAUCUAGAGUACACUAGUCACAUUGCGUGUACAUUACUCUGCGCAAUCGAUAAACGUCUACUGAAGCUAUCA
modifications: 2'-F all pyrimidines (U,C)
B7: binds [5].

B8: SEQ ID NO: 7 (ssRNA)
RNA: GGGAUCCGCAUCUAGAGUACGAAUAGUAAGGGAAUGACUCUCGGACCAAUGUAUUGCUAUAACGUCUACUGAAGCUAUCA
modifications: 2'-F all pyrimidines (U,C)
In the case of B8, the qualitative [3] is reported as no more than 10 RU.

B9: SEQ ID NO: 27 (ssRNA)
RNA: GGGAAUGCACUAGUGUUCAACAUUUAGCAACACAAGUCGUCCCCCACGGCAAGCAGUCCUCAAUCCUGACAAGCUUGCACGUCGAGUCAG
modifications: 2'-F all pyrimidines (U,C)
B9: binds [5].

B10: SEQ ID NO: 9 (ssRNA)
RNA: GGGAUCCGCAUCUAGAGUACCAUAAGGGUGGGGAGACUUGGGAGAGGGCAAAGAAGACUAAACGUCUACUGAAGCUAUCA
modifications: 2'-F all pyrimidines (U,C)
With B10 the activity [1] was 80 % inhibition and the binding signal [2] was 70.2 % inhibition.

B11: SEQ ID NO: 8 (ssRNA)
RNA: GGGAUCCGCAUCUAGAGUACGAUGUGCUUGUGCUGAAAUUAGAUUUCGCCGACUUUCCCUAACGUCUACUGAAGCUAUCA
modifications: 2'-F all pyrimidines (U,C)
In the case of B11, the qualitative [3] is reported as no more than 10 RU.
